We go through 28 proteins from US20150118700.

Changes are numbered by the printed parent chain. Names and notes keep the numbering of the source.

First the molecules themselves.
T1: α-fructosyl hexapeptide (α-fructosyl-valyl-histidyl-leucyl-threonyl-propyl-glutamic acid)
T1 chain: VHLTPE

B1: fructosyl amino acid oxidase derived from Aspergillus nidulans with serine 59 substituted with glycine (AnFX) (protein)
chain: MTPRANTKIIVVGGGGTMGSSTALHLLRAGYTPSNITVLDTCPIPSAQSAGYDLNKIMGIRLRNKPDLQLSLEALDMWKNDPLFKPFFHNVGMIDVSSTEEGIEGLRKKYQSLLDAGIGLEKTNFMLESEDEILAKAPHFTQEQIKGWKGLFCGDGGWLAAAKAINAIGQFLKEQGVKFGFGGAGTFKKPLFADAHEKTCIGVETVDGTKYYADKVVLAAGAWSSTLVDLEEQCVSKAWVFAHIQLTPAEAAAYKNTPVIYDGDYGFFFEPNENGIIKVCDEFPGFTHFKMHQPYGSPAPKPISVPRSHAKHPTDTYPHASEVTIKKAINRFLPRFNDKELFNRAMCWCTDTADANLLVCEHPRWKGFYLATGDSGHSFKLLPNIGKHVVELLEERLESVFKDAWRWRPGSGDALKSRRAAPAKDLADMPGWRNEAKM
B2: AnFX-61D/105K/109L (protein)
chain: B1 chain with R61D, G105K, K109L
B3: ketoamine oxidase derived from Neocosmospora vasinfecta (NvFX) (protein)
chain: MTTPRKETTVLIIGGGGTIGSSTALHLLRAGYTPSNITVLDTYPIPSAQSAGNDLNKIMGIRLRNKVDLQLSLEARDMWRNDALFRPFFHNTGRLDCESSAEGVEGLRREYQKLVEAGVGLEETHEWLDSEEAILEKAPLLQREEIEGWKAIWSEEGGWLAAAKAINAIGEELQRQGVRFGFGGAGSFKRPLFADDGTTCIGVETVDGTQYHADKVVLAAGAWSPALVDLEEQCCSKAWVYAHMQLTPEEAAVYKGCPVVYHGDVGFFFEPNENGVIKVCDEFPGFTRFKQHQPYGAPAPKPVSVPRSHAKHPTDTYPDASEESIKRAVSTFLPRFKDKPLFNRALCWCTDTADSALLICEHPRWKNFILATGDSGHSFKLLPIIGKHVVELVEGRLADDLAEAWRWRPGQGDARKSIRAAPAKDLADMPGWKHDQDSESR
B4: NvFX-62D/106K/110L (protein)
chain: B3 chain with R62D, G106K, E110L
B5: CFP-T7-H2-62Q (protein)
chain: MTSNRADTRVIVVGGGGTIGSSTALHLVRSGYAPANITVLDTFEIPSAQSAGHDLNKIMGIQLRNKVDLQMSLEARQMWKEDELFQPFFHNTGRMDCEHTPEGIEDLKKLYQALHDAGAGLEKTHAWLDNEDEILSKMPLLQRDQIQGWKAIWSQDGGWLAAAKAINAIGQFLKERGVKFGFGGAGSFKQPLFDDEGTTCIGVETADGTKYYADKVVLAAGAWSPTLVDLEDQCCSKAWVYAHIQLTPEEAAEYKGVPVVYNGEFGFFFEPDEFGVIKVCDEFPGFSRFKEHQPYGAPSPKRISVPRSHAKHPTDTYPDASEVSIKKAIATFLPRFQDKELFNRALCWCTDTADAALLMCEHPKWKNFILATGDSGHSFKILPNVGKYVVELIEGRLPEEMAYQWRWRPGGDALKSRRAAPPKDLADMPGWKHDPKL
B6: CFP-T7-H6 (protein)
chain: B5 chain with Q62D
B7: CFP-T7-H8 (protein)
chain: B5 chain with Q62D, R64E
B8: CFP-T7-H4 (protein)
chain: B5 chain with Q62A, L110Y
B9: CFP-T7-H9 (protein)
chain: B5 chain with Q62D, R64H
B10: CFP-T7-H27 (protein)
chain: B5 chain with Q62D, L63K, D106K, A113K
B11: CFP-T7-H2 (protein)
chain: B5 chain with Q62A
B12: CFP-T7-H25 (protein)
chain: B5 chain with Q62D, L63D, D106K, A113K
B13: CFP-T7-H26 (protein)
chain: B5 chain with Q62D, L63H, D106K, A113K
B14: CFP-T7-H1 (protein)
chain: B5 chain with Q62A, L110Q
B15: CFP-T7-H11 (protein)
chain: B5 chain with Q62D, D106K
B16: CFP-T7-H3 (protein)
chain: B5 chain with Q62A, L110F
B17: CFP-T7-H29 (protein)
chain: B5 chain with Q62D, L63H, D106K, A113K, A419K
B18: CFP-T7-H14 (protein)
chain: B5 chain with Q62D, A113R
B19: CFP-T7-H10 (protein)
chain: B5 chain with Q62D, D106A
B20: CFP-T7-H12 (protein)
chain: B5 chain with Q62D, D106R
B21: CFP-T7-H13 (protein)
chain: B5 chain with Q62D, A113K
B22: CFP-T7-H7 (protein)
chain: B5 chain with Q62D, R64A
B23: CFP-T7-H2-62E (protein)
chain: B5 chain with Q62E
B24: CFP-T7-H28 (protein)
chain: B5 chain with Q62D, L63H, E102K, D106K, A113K
B25: CFP-T7-H24 (protein)
chain: B5 chain with Q62D, L63A, D106K, A113K
B26: fructosyl peptide oxidase derived from Eupenicillium terrenum (EFP-T5) (protein)
chain: MAHSRASTKVVVVGGGGTIGSSTALHLIRSGYTPSNITVLDVYKTPSLQSAGHDLNKIMGIRLRNGPDLQLSLESLDMWQNDELFKPFFHQVGMIDCSSSKEGIENLRRKYQTLLDAGIGLEKTNVWLESEDEILAKAPNFTREQVKGWKGLFCTDGGWLAAAKAINAIGIFLQDKGVKFGFGDAGTFQQPLFAADGKTCIGLETTDGTKYFADKVVLAAGAWSPTLVDLEDQCVSKAWVFAHIQLTPKEADAYKNVPVVYDGEYGFFFEPDEYGVIKVCDEFPGFSRFKLHQPYGAASPKMISVPRSHAKHPTDTYPDASEVTIRKAIARFLPEFKDKELFNRTMCWCTDTADANLLICEHPKWKNFILATGDSGHSFKLLPNIGKYVVELLEGSLSQEMAGAWRWRPGGDALRSRRGAPAKDLAEMPGWKHDAHL
B27: EFP-T5-R62D (protein)
chain: B26 chain with R62D
B28: EFP-T5-62D/63H/106K/110L/113K/355S (protein)
chain: B26 chain with R62D, L63H, N106K, K110L, T113K, A355S

For the series, the target named is T1, α-fructosyl hexapeptide ….
B1 yielded a Specific activity (U/mg), 1 mM αF6P of 0 U/mg.
B2 had a Specific activity (U/mg), 1 mM αF6P of 0.106 U/mg.
As to B3, the Specific activity (U/mg), 1 mM αF6P came to 0 U/mg.
B4 yielded a Specific activity (U/mg), 1 mM αF6P of 0.003 U/mg.
For the protein B5, the αF6P oxidation activity ratio, relative to CFP-T7-H2 designated to be 100 (relative (CFP-T7-H2 = 100)) turned out to be 11.
As for B6, the αF6P oxidation activity ratio (reference, designated to be 100) (relative (CFP-T7-H6 = 100)) is 100; the αF6P oxidation activity ratio, relative to CFP-T7-H2 designated to be 100 (relative (CFP-T7-H2 = 100)) was 513; the αF6P oxidation activity, relative to αFVH oxidation activity designated to be 100 (relative (αFVH = 100)) worked out at 3.
Turning to B7, the αF6P oxidation activity ratio, relative to CFP-T7-H6 designated to be 100 (relative (CFP-T7-H6 = 100)) was 2.
As for B8, the αF6P oxidation activity, relative to αFVH oxidation activity designated to be 100 (relative (αFVH = 100)) turned out to be 0.0341.
In the case of B9, the αF6P oxidation activity ratio, relative to CFP-T7-H6 designated to be 100 (relative (CFP-T7-H6 = 100)) turned out to be 44.
On to B10, for which the αF6P oxidation activity ratio, relative to CFP-T7-H20 designated to be 100 (relative (CFP-T7-H20 = 100)) was found to be 7.
As to B11, the αF6P oxidation activity ratio (reference, designated to be 100) (relative (CFP-T7-H2 = 100)) is 100 and the αF6P oxidation activity, relative to αFVH oxidation activity designated to be 100 (relative (αFVH = 100)) is 0.0735.
B12: the αF6P oxidation activity ratio, relative to CFP-T7-H20 designated to be 100 (relative (CFP-T7-H20 = 100)) was 24.
In the case of B13, the αF6P oxidation activity ratio (reference, designated to be 100) (relative (CFP-T7-H26 = 100)) came to 100; the αF6P oxidation activity ratio, relative to CFP-T7-H20 designated to be 100 (relative (CFP-T7-H20 = 100)) stood at 142; the αF6P oxidation activity, relative to αFVH oxidation activity designated to be 100 (relative (αFVH = 100)) worked out at 84.3.
Consider B14, for which the αF6P oxidation activity, relative to αFVH oxidation activity designated to be 100 (relative (αFVH = 100)) was found to be 0.0316.
Regarding B15, the αF6P oxidation activity ratio, relative to CFP-T7-H6 designated to be 100 (relative (CFP-T7-H6 = 100)) is 951 and the αF6P oxidation activity, relative to αFVH oxidation activity designated to be 100 (relative (αFVH = 100)) is 12.5.
The protein B16 came in with a αF6P oxidation activity, relative to αFVH oxidation activity designated to be 100 (relative (αFVH = 100)) of 0.0298.
Consider B17, for which the αF6P oxidation activity ratio, relative to CFP-T7-H26 designated to be 100 (relative (CFP-T7-H26 = 100)) is 102 and the αF6P oxidation activity, relative to αFVH oxidation activity designated to be 100 (relative (αFVH = 100)) was determined as 111.
As to B18, the αF6P oxidation activity ratio, relative to CFP-T7-H6 designated to be 100 (relative (CFP-T7-H6 = 100)) worked out at 183 and the αF6P oxidation activity, relative to αFVH oxidation activity designated to be 100 (relative (αFVH = 100)) amounted to 4.22.
Regarding B19, the αF6P oxidation activity ratio, relative to CFP-T7-H6 designated to be 100 (relative (CFP-T7-H6 = 100)) came out at 301.
In the case of B20, the αF6P oxidation activity ratio, relative to CFP-T7-H6 designated to be 100 (relative (CFP-T7-H6 = 100)) amounted to 636 and the αF6P oxidation activity, relative to αFVH oxidation activity designated to be 100 (relative (αFVH = 100)) was 11.6.
B21: the αF6P oxidation activity ratio, relative to CFP-T7-H6 designated to be 100 (relative (CFP-T7-H6 = 100)) was found to be 207 and the αF6P oxidation activity, relative to αFVH oxidation activity designated to be 100 (relative (αFVH = 100)) is 4.33.
As for B22, the αF6P oxidation activity ratio, relative to CFP-T7-H6 designated to be 100 (relative (CFP-T7-H6 = 100)) came out at 17.
Take B23: the αF6P oxidation activity ratio, relative to CFP-T7-H2 designated to be 100 (relative (CFP-T7-H2 = 100)) came to 21.
For the protein B24, the αF6P oxidation activity ratio (reference row of the table, 100) (relative (CFP-T7-H28 = 100)) came to 100; the αF6P oxidation activity ratio, relative to CFP-T7-H26 designated to be 100 (relative (CFP-T7-H26 = 100)) stood at 117; the αF6P oxidation activity, relative to αFVH oxidation activity designated to be 100 (relative (αFVH = 100)) worked out at 134.
Consider B25, for which the αF6P oxidation activity ratio, relative to CFP-T7-H20 designated to be 100 (relative (CFP-T7-H20 = 100)) stood at 123 and the αF6P oxidation activity, relative to αFVH oxidation activity designated to be 100 (relative (αFVH = 100)) was found to be 86.7.
With B26, the Specific activity (U/mg), 1 mM αF6P was 0 U/mg.
As to B27, the Specific activity (U/mg), 1 mM αF6P amounted to 0.0043 U/mg.
B28 yielded a Specific activity (U/mg), 1 mM αF6P of 1.12 U/mg.
